Two substances from patent US20020031818A1, “Modification of Mdm2 activity” (priority 2000, published 2002) can be followed below.

Assay [1] addresses T1, Mdm2 (Homo sapiens, UniProt Q00987).
T1 construct: expressed in transfected cells; host or cells: p53/Mdm2 double null cells
In words: In vivo sumoylation of Mdm2 in p53/Mdm2 double null cells. Format: cell-based. Particulars: p53/Mdm2 double null cells, Flag-Mdm2, HA-Sumo-1, increasing amounts of peptide, 36 h. Here is the method:
FIGS. 10A-10D. A. Time dependent Mdm2 sumoylation in vitro. Bacterially expressed and purified GST-Mdm2 was subjected to in vitro sumoylation reaction in the presence of E1, Ubc9, and ^35S-Sumos. Reaction was terminated after 10,30,50 or 60 minutes, Proteins were separated on 8% gel, Commassie stained, dryed and exposed overnight (upper panel). Lower panel depicts Commassie blue staining of Mdm2 forms. B. A peptide corresponding to the Ubc-9 binding site on Mdm2 decreases Mdm2 in vitro sumoylation of Mdm2 in a time-dependent manner. (Upper part) The specific Ubc-9-binding site peptide or a nonspecific peptide was added to the reaction for the indicated time periods. […] The lower panel depicts a Coomassie staining visualizing relative amounts of sumoylated and non-sumoylated forms of purified GST-Mdm2. C. The Mdm2 sumoylation assay was carried out in the presence of Ubc-9-binding site peptide (mu9bs) or a nonspecific peptide ([…]) which were added to the reaction at the indicated concentrations. […] D. A peptide corresponding to the Ubc-9 binding site on Mdm2 decreases Mdm2 sumoylation in vivo. […] Immunoprecipitated Mdm2 levels were detected using 2A10 antibodies (top). […]
FIG. 13A-13E. […] (Left) Immunoprecipitated Mdm2 was detected using monoclonal Mdm2 antibodies (2A10, left). […]

In assay [2] the test system is Mdm2 association with p53. In words: p53 immunoprecipitation and immunoblot for bound Mdm2 form and p53 level in peptide-expressing cells. Format: cell-based. Here is the method:
FIG. 11. Ubc9 binding affects the form of Mdm2 associated with p53. Mdm2/p53 double null cells were transfected with mu9sb or the wild type form mu9bs together with p53 and Mdm2. 36 h after transfection protein extracts were prepared and used for immunoprecipitation of p53 (using D01 antibodies). Immunoprecipitated material was analyzed via immunoblotting using antibodies to Mdm2, enabling to reveal the two major forms of Mdm2, indicated.
Therefore, we transfected human fibroblasts with mu9bs or mu9sb peptides. Immunoprecipitation of p53 was followed by Western blot analysis to determine the type and level of Mdm2 bound to p53 under each of these conditions.
For orientation: Immunoblotting shows a protein as a band on a membrane.

Assay [3] deals with T2, Ubc9 (Mus musculus, UniProt P63280).
T2 construct: endogenous in cells; host or cells: NIH 3T3
The experiment in a line: Ubc9 capture by peptide immobilized on AminoLink column, Western blot. Format: binding. Particulars: peptide-bound beads incubated with cell lysates from EJ mouse fibroblast cells; Western blot with Ubc9 antibodies. Here is the method:
(§1) FIGS. 9A and 9B. A. A peptide corresponding to aa 40-59 on Mdm2 binds Ubc9. mu9bs (Mdm2 Ubc9 binding site) corresponding to aa 40-59 of Mdm2 and its control scrambled counterpart peptide mu9sb (were immobilized on an AminoLink column [Pierce]). 50 μl of peptide-bound beads were incubated with 1 mg of cell lysates from EJ mouse fibroblast cells. Beads were washed extensively with 0.5M LiCl/TBS and eluates were separated on a 14% gel. B. Ubc9 binds to mu9bs in vivo. NIH 3T3 cells were transfected with wt or mutant Ubc9 binding site peptide. 36 h after transfection cells were lysed and lysates were immunoprecipitated with HA-antibodies directed against the HA-tag of transfected peptides. Upper panel depicts to Co-immunoprecipitation of Ubc9 with the wt but not the mutant peptide.
Immunobilization of peptides to an AminoLink® column (Pierce Biochemical) was carried out exactly according to the manufacturer's protocol. In brief, column was equilibrated with coupeling buffer and 1 column volume of solution containing 1 mg of peptide was incubated with gel for 6 h. Later column was drained and washed with coupeling buffer. […]
To further assess the role of the Ubc-9 binding domain in Mdm2 sumoylation, a peptide that corresponds to aa 40-59 of Mdm2 was synthesized. […] Beads coupled to the peptides were incubated with cell lysates and bound proteins were analyzed in Western blots using antibodies to Ubc9.

Assay [4] concerns the target T3, GST-Mdm2 (Homo sapiens, UniProt Q00987).
T3 construct: made in house
The experiment in a line: In vitro conjugation of SUMO-1 to GST-Mdm2 (in vitro sumoylation). Format: biochemical.
Description: A. Time dependent Mdm2 sumoylation in vitro. Bacterially expressed and purified GST-Mdm2 was subjected to in vitro sumoylation reaction in the presence of E1, Ubc9, and ^35S-Sumos. Reaction was terminated after 10,30,50 or 60 minutes, Proteins were separated on 8% gel, Commassie stained, dryed and exposed overnight (upper panel). Lower panel depicts Commassie blue staining of Mdm2 forms. […] (Upper part) The specific Ubc-9-binding site peptide or a nonspecific peptide was added to the reaction for the indicated time periods. […] The lower panel depicts a Coomassie staining visualizing relative amounts of sumoylated and non-sumoylated forms of purified GST-Mdm2. C. The Mdm2 sumoylation assay was carried out in the presence of Ubc-9-binding site peptide (mu9bs) or a nonspecific peptide (mu9bs) which were added to the reaction at the indicated concentrations. […] Mdm2/p53 double null cells were transfected with Flag-tagged Mdm2, HA-tagged Sumo-1 and increasing amounts of the specific or nonspecific Ubc-9-peptides, respectively. Cells were harvested 36 h later and 500 μg of protein was immunoprecipitated using Mdm2 antibodies (2A10). Immunoprecipitated Mdm2 levels were detected using 2A10 antibodies (top). The same membrane was stripped and reprobed using monoclonal antibodies against Sumo-1 (Zymed, middle) to visualize the level of Sumo-1 conjugation to Mdm2 after Ubc-9-peptide expression.
A. Bacterially expressed and purified Mdm2 (1 μg) was incubated with ^32P-labeled Sumo-1, purified Aos1/Uba2 and Ubc9 (0.5 μg) for 60 min at 37° C. in conjugation buffer. For indicated time-periods in vitro translated wt or mutant p19^ARF (0.5 mg) was added to the sumoylation reactions. Upper panel depicts the amount of Sumoylated Mdm2, lower panel reveal the level of Mdm2 and Sumo-Mdm2 in Coomassie blue gel. B. Bacterially expressed and purified Mdm2 (1 μg) was incubated with in vitro-translated ^35S-Sumo, purified Aos1/Uba2 and Ubc9 (0.5 μg) for 60 min at 37° C. in conjugation buffer in the presence of the increasing amounts of bacculovirus-expressed p19^ARF (0, 0.1, 0.5, 1 μg; lanes 1-4 respectively). Bead-bound complexes were washed before being denatured in 3× Sample Buffer. Proteins were separated on 8% SDS-PAGE. Gel was stained with Coomassie blue to verify equal Mdm2 input (lower panel), dried and exposed to X-ray film, which depicts SUMO-1 conjugation to Mdm2 in the presence of the indicated p19 forms (upper panel). […] Double-null cells were transfected with Flag-tagged Mdm2 (1.5 μg), HA-tagged SUMO (1.5 μg) and p19 wt (1.5 μg). Cells were treated with MG132 (40 mM) for 5 h prior to protein preparation. […] (Left) Immunoprecipitated Mdm2 was detected using monoclonal Mdm2 antibodies (2A10, left). […]

Assay [5] has as its target T2, Ubc9. The experiment in a line: Co-immunoprecipitation of Ubc9 with HA-tagged peptide expressed in NIH 3T3 cells. The note with it: HA-tagged penetratin peptide vector, 36 h after transfection. The assay is classed as cell-based. On the procedure: as §1
Vectors described in Example I were used in the present example. The sequence of the Ubc-9 binding domain on Mdm2 (aa 40-59, Mdm2 Ubc9 binding site; mu9bs) in wt or in a scrambled orientation (mu9sb) was cloned in frame between EcoRI and XhoI restriction sites into a pcDNA3 that carries the penetration sequence, followed by the sequence encoding the HA-tag. All Mdm2 mutants were cloned in pBluescipt KS. Mutant Ubc9C93S was a gift from Olli Jänne.
To further confirm the ability of the peptide corresponding to mu9bs to associate with Ubc9 we carried out in vivo reactions. […]

In assay [6] the target is T4, Ubc9 binding to Mdm2 (Homo sapiens, UniProt Q00987).
T4 construct: made in house; host or cells: GST-Mdm2: bacteria; Ubc9: in vitro translation
In words: In vitro binding of Ubc9 to GST-Mdm2. The note with it: GST-Mdm2 phosphorylated by active p38 kinase. Here is the method:
FIGS. 17A and 17B. A. p19^ARF decreases Ubc9 binding to Mdm2. Bacterially expressed and purified GST-Mdm2 (1 μg) was incubated with ^35S-labeled in vitro translated p19^ARF and Ubc9 at the indicated ratios. After 30 min of incubation GSH beads bound-GST-Mdm2 were washed and separated on a 12% SDS-PAGE. Gel was dried and subjected to autoradiograph, depicting relative amounts of Ubc9 and p19^ARF bound to Mdm2. B. Bacterially expressed and purified GST-Mdm2 (1 μg) was phosphorylated by purified form of active p38 kinase as indicated. Phosphorylated or un-phosphorylated Mdm2 was incubated for 30 min with in vitro translated UbcH5b and Ubc9 (25 μl). Beads were washed and separated on a 12% SDS-PAGE. Gel was dried and exposed to X-ray film. Position of Ubc9 and UbcH5b is shown.
A prerequisite for Mdm2 sumoylation is the association of Ubc9, the SUMO conjugating enzyme, with Mdm2, which enables subsequent conjugation of SUMO-1 to Mdm2. Inhibition of Ubc9's association with Mdm2 attenuates Mdm2 sumoylation. Given the effect of p19^ARF on Mdm2 sumoylation, we proceeded to determine whether p19^ARF may alter Ubc9 binding to Mdm2. To this end we performed an in vitro binding assay, using in vitro translated p19^ARF and Ubc-9, as indicated. […] We next assessed possible changes in Ubc9 binding to Mdm2 upon its phosphorylation by p38.

T3 sequence (Q00987 whole entry): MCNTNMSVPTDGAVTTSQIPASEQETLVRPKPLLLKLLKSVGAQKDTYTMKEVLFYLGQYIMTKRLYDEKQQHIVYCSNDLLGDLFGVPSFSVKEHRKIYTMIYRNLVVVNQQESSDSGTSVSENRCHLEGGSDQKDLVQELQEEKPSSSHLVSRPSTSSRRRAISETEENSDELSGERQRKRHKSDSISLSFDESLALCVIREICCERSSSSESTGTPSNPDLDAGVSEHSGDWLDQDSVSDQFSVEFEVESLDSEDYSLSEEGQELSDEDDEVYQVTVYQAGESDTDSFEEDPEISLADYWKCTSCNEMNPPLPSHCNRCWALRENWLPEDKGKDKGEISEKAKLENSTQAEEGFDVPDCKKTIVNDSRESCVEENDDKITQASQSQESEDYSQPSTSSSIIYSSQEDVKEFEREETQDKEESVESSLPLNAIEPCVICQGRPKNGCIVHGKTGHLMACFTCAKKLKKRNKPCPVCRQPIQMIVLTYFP
T2 sequence (P63280 whole entry): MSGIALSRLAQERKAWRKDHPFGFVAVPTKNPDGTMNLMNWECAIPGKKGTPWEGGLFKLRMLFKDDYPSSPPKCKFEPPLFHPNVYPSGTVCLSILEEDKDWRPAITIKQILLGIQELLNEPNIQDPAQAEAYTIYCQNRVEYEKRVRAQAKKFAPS
T4 sequence (Q00987 whole entry): as the sequence (Q00987 whole entry) above
T1 sequence (Q00987 whole entry): as above

“mu9bs: peptide that corresponds to aa 40-59 of Mdm2 (mdm2 Ubc9 binding site) (SVGAQKDTYTMKEVLFYLGQ)”: the “degree of Mdm2 sumoylation in vivo upon peptide co-expression” value in assay [1] is on record as “dose-dependent decrease in the degree of Mdm2 sumoylation in vivo”. Moreover, the “overall level of p53 expression” value in assay [2] was “increased level of p53”. Besides, in assay [2] (peptide expression, p53 immunoprecipitation), the “form of Mdm2 (75 kDa non-sumoylated / 90 kDa sumoylated) associated with p53” value was “p53 association only with the non-sumoylated form of Mdm2”. The “capture of Ubc9 by column-coupled peptide” value in assay [3] is “captured Ubc9”. In addition, in assay [4], the “Mdm2 sumoylation in vitro, increasing concentrations of peptide” value is on record as “dose-dependent decrease of Mdm2 sumoylation”. The “Mdm2 sumoylation in vitro, peptide added for different periods of time” value in assay [4] (peptide present 0-50 min of 60 min reaction) is listed as “sufficient to attenuate Mdm2 sumoylation in a manner that coincided with the length of the incubation”. In addition, the “association of expressed peptide with Ubc9 in vivo” value in assay [5] is given as “associated with Ubc9”.
As to “p38: purified active p38 kinase that phosphorylates Mdm2”, in assay [6], the “Ubc9 binding to Mdm2 upon in vitro phosphorylation of Mdm2” value is given as “marked decrease in Ubc9 binding to Mdm2”.
